For experiment [1], the system named is FRC (fetal rat calvarial) cells. The experiment in a line: Alkaline phosphatase (AP) activity assay in FRC cells. The format is cell-based. Here is the method:
A preferred assay for testing potential MPSFs with OP-1 for osteogenic activity is the alkaline phosphatase (AP) enzymatic assay. AP is an osteoblast differentiation marker in primary osteoblastic FRC. (fetal rat calvarial) cells. The OP-1-stimulated AP activity is the result of increased steady-state AP mRNA levels as measured by Northern analysis. The procedure is generally as follows.
Primary osteoblast cell cultures were prepared from fetal rat calvaria using published procedures (M. A. Aronow et al., J. Cell Physiol., 143, pp. 213–221 (1990); T. K. McCarthy et al., J. Bone Miner. Res., 3, pp. 401–8 (1988)). Briefly, cells were harvested by sequential collagenase digestions of the calvarium and cells from digestions III to V were pooled. Fetal rat calvaria (FRC) cells were plated in complete medium (MEM, alpha; GIBCO/BRL, Grand Island, N.Y.) containing 10% fetal bovine serum, vitamin C (100 μg/ml), and antibiotics (100 U/ml penicillin, and […]). Cultures were incubated at 37° C. with 95% air/5% CO2 for several days to reach confluence. Cells were then subcultured for experimentations.
FRC cells were subcultured in 48-well plates (COSTAR, Cambridge, Mass.) in complete MEM medium with 10% fetal bovine serum until confluent in about 4 days. Confluent cells were rinsed with Hank's balanced salt solution (HBSS) and treated with serum-free α-MEM medium (with 0.1% BSA, 100 U/ml penicillin, and […]) containing the appropriate solvent vehicle (50% acetonitrile/0.1% trifluoroacetic acid for OP-1 treatment or 0.1N acetic acid for IGFI treatment) or recombinant human OP-1, or IGFI at the concentrations indicated. Solvent vehicle concentration in the culture medium never exceeded 0.1%. At the end of treatment, cells were lysed and total cellular alkaline phosphatase activity was measured (typically after 48 hours of treatment).
Total cellular alkaline phosphatase activity was determined using a commercial assay kit (Sigma, St. Louis, Mo.). Cell lysates were prepared by aspirating the medium from the 48-well plate, rinsing the cells with ice-cold PBS, and lysing the cells with 0.05% Triton X-100 and sonication for 60 sec. Alkaline phosphatase activity in the lysates was measured in 2-amino-2-methyl-1-propanol buffer (pH 10.3) with p-nitrophenyl phosphate as substrate at 37° C. Reactions were performed in 96-well plates for 1–2 h. Following color development, reactions were terminated with 0.5N NaOH. Absorbance of the reaction was measured at 405 nm using a Hewlett Packard Genenchem automatic plate reader. Total protein level in the lysates was measured according to Bradford (M. Bradford, Anal. Biochem., 72, pp. 248–54 (1976)) using bovine serum albumin as a standard. Alkaline phosphatase activity was expressed as nmol p-nitrophenol liberated per microgram of total cellular protein. […]
At least four experimental groups were tested: control cells treated with no OP-1 or MPSF; group I cells treated with increasing concentrations of MPSF alone; […]; and group III cells, […] concentrations of the MPSF.

For experiment [2] the following is noted: cited from earlier work.
Experiment [3] is described as follows: Osteogenic activity of refolded E. coli-expressed constructs incorporated in a matrix. The class given is in vivo. To be noted: refolded constructs from SDS gel slices incorporated in a matrix; histological examination. The text has this:
Samples of the various purified constructs and various mixtures of pairs of the constructs refolded together were applied to SDS polyacrylamide gels, separated by electrophoresis, sliced, incorporated in a matrix as disclosed below, and tested for osteogenic activity.

Where [4] appears, read: 200 nM PTH + 200 ng/ml OP-1, 48 hours (FIG. 9).

Data on four molecules can be found in patent US7026292B1, “Compositions and therapeutic methods using morphogenic proteins and stimulatory factors” (Stryker Corporation, priority 1995, dated 2006).

Positions count from the first letter of the chain named. Read-outs that look alike come from different tables or passages of the source.

B1: PTH: parathyroid hormone, purchased from Sigma (protein, UniProt P01270 32-115, looked up)
Parathyroid hormone: SVSEIQLMHNLGKHLNSMERVEWLRKKLQDVHNFVALGAPLAPRDAGSQRPRKKEDNVLVESHEKSLGEADKADVNVLTKAKSQ
modifications: Parathyroid hormone
notes: parathyroid hormone, purchased from Sigma
On to B1, for which, in experiment [1] (setting [4]), the “Level of AP activity relative to cells treated with OP-1 alone” value was “about two-fold” and the “Level of AP activity relative to control cells” value is listed as “about five-fold”. Besides, the “MPSF function in concert with OP-1 (figure title)” value in experiment [1] (AP activity in FRC cells, OP-1 200 ng/ml (FIGS. 5–10)) is “is a MPSF in concert with OP-1”. For the same molecule, the “Effect on OP-1-induced stimulation of AP activity” value in experiment [1] (PTH 25 and 100 nM + 200 ng/ml OP-1, 48 hours (FIG. 9)) is reported as “no effect”. Also, the “Stimulation of AP activity by PTH alone” value in experiment [1] (PTH 25–200 nM alone, 48 hours (FIG. 9)) is recorded as “did not stimulate AP activity”. Further, in experiment [1] (PTH at least about 50 nM + 200 ng/ml OP-1 + 25 ng/ml IGF-1), the “Effect of PTH on AP activity induced by the OP-1/IGF-I combination” value is given as “significantly increased”.

B2: OP-1: osteogenic protein OP-1 (BMP-7), morphogenic protein of the BMP family; recombinant human OP-1 used in FRC assays (protein, UniProt P18075 293-431, looked up)
Bone morphogenetic protein 7: STGSKQRSQNRSKTPKNQEALRMANVAENSSSDQRQACKKHELYVSFRDLGWQDWIIAPEGYAAYYCEGECAFPLNSYMNATNHAIVQTLVHFINPETVPKPCCAPTQLNAISVLYFDDSSNVILKKYRNMVVRACGCH
Take B2: the “Stimulation of AP activity above vehicle-treated control culture” value in experiment [1] (OP-1 500 ng/ml, 48 hours (FIG. 2)) stood at 1.6 fold. In addition, the Osteogenic activity result in experiment [2] (deglycosylated protein, about 27 kD) is listed as “has osteogenic activity”; in experiment [2] (native 30–35 kD protein in the reduced state), “no detectable osteogenic activity”.

B3: COP5: synthetic consensus osteogenic protein, Seq. ID No. 2 (protein)
chain: LYVDFSDVGWDDWIVAPPGYQAFYCHGECPFPLADHFNSTNHAVVQTLVNSVNSKIPKACCVPTELSAISMLYLDENEKVVLKYNQEMVVEGCGCR
Take B3: in experiment [3], the Osteogenic activity result is on record as “induce osteogenesis”.

B4: COP7: synthetic consensus osteogenic protein, Seq. ID No. 3 (protein)
chain: B3 chain with D11N, Q21H, F37L
B4: the Osteogenic activity result in experiment [3] is listed as “induce osteogenesis”.
